Results reported in US20240368668.

Experiments:
[1] = biological target: T1, purified recombinant human HA-tagged EFEMP1/Fibulin-3 (R&D, 8416-FB), Q12805
T1 chain: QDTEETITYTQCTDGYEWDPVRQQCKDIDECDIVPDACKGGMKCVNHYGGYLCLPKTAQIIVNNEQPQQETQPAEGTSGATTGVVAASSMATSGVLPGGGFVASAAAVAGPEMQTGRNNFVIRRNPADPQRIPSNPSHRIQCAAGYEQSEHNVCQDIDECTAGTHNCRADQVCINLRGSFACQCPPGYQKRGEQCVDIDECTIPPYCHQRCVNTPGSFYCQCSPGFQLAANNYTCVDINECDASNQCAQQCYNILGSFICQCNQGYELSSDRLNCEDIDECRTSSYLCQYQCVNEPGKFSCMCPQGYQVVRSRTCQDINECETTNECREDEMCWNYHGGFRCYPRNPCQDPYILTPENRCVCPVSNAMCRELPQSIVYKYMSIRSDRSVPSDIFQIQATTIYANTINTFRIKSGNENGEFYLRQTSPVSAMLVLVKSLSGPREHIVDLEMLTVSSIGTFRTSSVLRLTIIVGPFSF

B1: purified full-length mouse ADAMTS7 S3A WT 3xFlag (protein)
chain: SVAKEKWVETLVVADSKMVEYHGQPQVESYVLTIMNMVAGLFHDPSIGNPIHISIVRLIILEDEEKDLKITHHAEETLKNFCRWQKNINIKGDDHPQHHDTAILLTRKDLCASMNQPCETLGLSHVSGLCHPQLSCSVSEDTGMPLAFTVAHELGHSFGIQHDGTGNDCESIGKRPFIMSPQLLYDRGIPLTWSRCSREYITRFLDRGWGLCLDDRPSKDVIALPSVLPGVLYDVNHQCRLQYGSHSAYCEDMDDVCHTLWCSVGTTCHSKLDAAVDGTSCGKNKWCLKGECVPEGFQPEAVDGGWSGWSAWSDCSRSCGVGVRSSERQCTQPVPKNRGKYCVGERKRSQLCNLPACPPDRPSFRHTQCSQFDGMLYKGKLHKWVPVPNDDNPCELHCRPSNSSNTEKLRDAVVDGTPCYQSRISRDICLNGICKNVGCDFVIDSGAEEDRCGVCRGDGSTCQTVSRTFKETEGQGYVDIGLIPAGAREILIEEVAEAANFLALRSEDPDKYFLNGGWTIQWNGDYRVAGTTFTYARKGNWENLTSPGPTSEPVWIQLLFQEKNPGVHYQYTIQRDSHDQVRPPEFSWHYGPWSKCTVTCGTGVQRQSLYCMERQAGVVAEEYCNTLNRPDERQRKCSEEPCPPRWWAGEWQPCSRSCGPEGLSRRAVFCIRSMGLDEQRALELSACEHLPRPLAETPCNRHVICPSTWGVGNWSQCSVTCGAGIRQRSVLCINNTDVPCDEAERPITETFCFLQPCQYPMYIVDTGASGSGSSSPELFNEVDFIPNQLAPRPSPASSPKPVSISNAIDEEELDPPGPVFVDDFYYDYNFINFHEDLSYGSFEEPHPDLVDNGGWTAPPHIRPTESPSDTPVPTAGALGAEAEDIQGSWSPSPLLSEASYSPPGLEQTSINPLANFLTEEDTPMGAPELGFPSLPWPPASVDDMMTPVGPGNPDELLVKEDEQSPPSTPWSDRNKLSTDGNPLGHTSPALPQSPIPTQPSPPSISPTQASPSPDVVEVSTGWNAAWDPVLEADLKPGHGELPSTVEVASPPLLPMATVPGIWGRDSPLEPGTPTFSSPELSSQHLKTLTMPGTLLLTVPTDLRSPGPSGQPQTPNLEGTQSPGLLPTPARETQTNSSKDPEVQPLQPSLEEDGDPADPLPARNASWQVGNWSQCSTTCGLGAIWRLVSCSSGNDEDCTLASRPQPARHCHLRPCAAWRTGNWSKCSRNCGGGSSTRDVQCVDTRDLRPLRPFHCQPGPTKPPNRQLCGTQPCLPWYTSSWRECSEACGGGEQQRLVTCPEPGLCEESLRPNNSRPCNTHPCTQWVVGPWGQCSAPCGGGVQRRLVRCVNTQTGLAEEDSDLCSHEAWPESSRPCATEDCELVEPPRCERDRLSFNFCETLRLLGRCQLPTIRAQCCRSCPPLSRGVPSRGHQRVARR
B1 was tested, and the “auto-cleavage, peptide sequencing of the purified protein” value (Q68SA9) was “Peptide sequencing (Tufts University Core Facility) of the lower band or the total purified WT S3A protein identified a potential auto-cleavage site at F1062 (SYGS|FEEP)” and the “in vitro cleavage, 4 hours at 37 C, western blot” value [1] was “Full-length HA-EFEMP1 was detected at the expected position and a lower band was detected matching the predicted HA tagged amino terminus after cleavage by ADAMTS7 in the atypical first EGF domain”.
